Experimental findings from article PMC13035853, “Mechanism of beta-arrestin 1 mediated Src activation via Src SH3 domain revealed by cryo-electron microscopy” (Nature Communications, 2026) are described below.

In the experiment the target is SH3 domain of Src (residues 83-141), wild type, with C-terminal FLAG-tag (chicken, UniProt P00523 83-141). The experiment is described as follows: bimane fluorescence; as a10, for the pair of SH3 (250 nM) and βarr1 V70C-mBr (20 nM), both purified; read-out is the loss of the V2R-induced rise of bimane fluorescence. Conditions: both partners purified.

B1: βarr1-MC-393 V70C labeled with monobromobimane (natural protein, rat, UniProt P29066 1-393, looked up)
chain: MGDKGTRVFKKASPNGKLTVYLGKRDFVDHIDLVDPVDGVVLVDPEYLKERRVYVTLTAAFRYGREDLDCLGLTFRKDLFVANVQSFPPAPEDKKPLTRLQERLIKKLGEHAYPFTFEIPPNLPSSVTLQPGPEDTGKAIGVDYEVKAFVAENLEEKIHKRNSVRLVIRKVQYAPERPGPQPTAETTRQFLMSDKPLHLEASLDKEIYYHGEPISVNVHVTNNTNKTVKKIKISVRQYADIVLFNTAQYKVPVAMEEADDTVAPSSTFSKVYTLTPFLANNREKRGLALDGKLKHEDTNLASSTLLREGANREILGIIVSYKVKVKLVVSRGGLLGDLASSDVAVELPFTLMHPKPKEEPPHREVPESETPVDTNLIELDTNDDDIVFEDFAR
modifications: bimane (mBr) on C70 of the finger loop
notes: beta-arrestin 1, rat, minimal cysteine and truncated variant (MC-393) with V70C; also called βarr1 V70C-mBr; βarr1 finger loop bimane; source: E. coli BL21 derivative, purified; labeled with monobromobimane, free label removed by SEC
As to B1, the binding result is “binds”.
